Measured values as given in US20040005333A1 (HER MAJESTY THE QUEEN IN RIGHT OF CANADA AS REPRESENTED BY …, published 2004).

What was measured:
protein G agarose = protein G agarose (UniProt P06654 228-352); assay: protein G agarose precipitation, SDS-PAGE with Coomassie staining
human C1q protein = target: T1, human C1q protein (human, UniProt P02745 23-245; P02746 28-253; P02747 29-245); assay: ELISA on strips coated with human C1q, HRP-anti-human Ab detection
T1 construct: also called human C1q complement
T1 sequence (P02745 23-245 limits assumed, chain 1 of 3): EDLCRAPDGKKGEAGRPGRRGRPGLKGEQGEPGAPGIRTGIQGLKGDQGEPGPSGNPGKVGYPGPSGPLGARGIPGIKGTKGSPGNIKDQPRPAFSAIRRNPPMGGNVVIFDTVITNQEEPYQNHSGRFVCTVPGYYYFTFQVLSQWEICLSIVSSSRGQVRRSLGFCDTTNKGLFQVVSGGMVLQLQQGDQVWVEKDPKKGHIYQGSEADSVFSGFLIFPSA
T1 sequence (P02746 28-253 limits assumed, chain 2 of 3): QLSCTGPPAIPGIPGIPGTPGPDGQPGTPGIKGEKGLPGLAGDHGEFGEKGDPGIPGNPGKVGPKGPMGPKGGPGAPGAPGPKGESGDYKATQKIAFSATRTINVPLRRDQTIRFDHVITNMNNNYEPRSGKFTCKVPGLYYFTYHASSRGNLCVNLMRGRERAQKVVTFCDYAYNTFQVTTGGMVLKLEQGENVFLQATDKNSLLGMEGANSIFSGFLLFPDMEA
T1 sequence (P02747 29-245 limits assumed, chain 3 of 3): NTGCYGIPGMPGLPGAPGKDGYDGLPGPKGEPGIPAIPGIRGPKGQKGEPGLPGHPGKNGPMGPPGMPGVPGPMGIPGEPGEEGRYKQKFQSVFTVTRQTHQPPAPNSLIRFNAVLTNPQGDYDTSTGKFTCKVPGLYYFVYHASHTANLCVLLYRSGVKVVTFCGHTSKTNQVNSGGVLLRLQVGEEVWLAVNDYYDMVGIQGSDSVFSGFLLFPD

Sequence of protein G agarose (P06654 228-352): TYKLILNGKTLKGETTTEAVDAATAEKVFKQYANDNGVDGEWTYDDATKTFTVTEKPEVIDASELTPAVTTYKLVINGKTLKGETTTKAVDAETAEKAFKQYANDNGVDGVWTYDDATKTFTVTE

B1: mA116 scFv Ab (scFv)
scFv: QVQLQESGPELVKPGASVKISCKASGYTFTDYHVHWVKGKPGQGLEWIGMTYPGFDNTNYSETFKGKATLTVDTSSNTVYMQLSSLTSEDTAVYFCARGVGLDYWGQGTTVTVSSGGGGSGGGGSGGGGSDIELTQSPNSLSTSIGDRIRITCKASQDVDTAVGWYQQRPGQSPKLLIFWSSTRHTGVPDRFTGSGSGTDFTLTISNVQSEDLADYFCHQYSSYPFTFGSGTKLEIK
notes: also called repaired A116 scFv Ab
binding result (protein G agarose): no binding

B2: mA116huFc Ab (Fc fusion)
chain: MRGSHHHHHHGMASMTGGQQMGRDLYDDDDKDRWGSELEICSWYHGIPLVVPFYAAQPAMAQVQLQESGPELVKPGASVKISCKASGYTFTDYHVHWVKGKPGQGLEWIGMTYPGFDNTNYSETFKGKATLTVDTSSNTVYMQLSSLTSEDTAVYFCARGVGLDYWGQGTTVTVSSGGGGSGGGGSGGGGSDIELTQSPNSLSTSIGDRIRITCKASQDVDTAVGWYQQRPGQSPKLLIFWSSTRHTGVPDRFTGSGSGTDFTLTISNVQSEDLADYFCHQYSSYPFTFGSGTKLEIKRAAAGCLVKDYFPEPVTVSWNSGALTSGVHTFPAVLQSSGLYSLSSVVTVPSSSLGTQTYICNVNHKPSNTKVDKRVEPKSCDKTHTCPPCPAPELLGGPSVFLFPPKPKDTLMISRTPEVTCVVVDVSHEDPEVKFNWYVDGVEVHNAKTKPREEQYNSTYRVVSVLTVLHQDWLNGKEYKCKVSNKALPAPIEKTISKAKGQPREPQVYTLPPSRDELTKNQVSLTCLVKGFYPSDIAVEWESNGQPENNYKTTPPVLDSDGSFFLYSKLTVDKSRWQQGNVFSCSVMHEALHNHYTQKSLIRLLTKPERKLSWLLPPLSNN
notes: also called recombinant mA116huFc Ab; 70 kDa protein
binding result (human C1q protein): binds
